Data on one molecule can be found in patent US20260209347A1 (BIORAY PHARMACEUTICAL, published 2026).

Test [1] deals with human NKG2A/CD94 on cells (CHOK1-hNKG2A/CD94) (human) (UniProt P26715). As to the kind of experiment: cell-based or functional assay.
The target is the same in test [2]. As to the kind of experiment: FACS on human NKG2A overexpressing cell line.
Test [3] has the same target. As to the kind of experiment: cell-based or functional assay. The source holds these as a separate data set.

Like-named read-outs stand apart in the source and are kept apart here.

human NKG2A/CD94 on cells (CHOK1-hNKG2A/CD94) (human), sequence (P26715 whole entry, chain 1 of 2): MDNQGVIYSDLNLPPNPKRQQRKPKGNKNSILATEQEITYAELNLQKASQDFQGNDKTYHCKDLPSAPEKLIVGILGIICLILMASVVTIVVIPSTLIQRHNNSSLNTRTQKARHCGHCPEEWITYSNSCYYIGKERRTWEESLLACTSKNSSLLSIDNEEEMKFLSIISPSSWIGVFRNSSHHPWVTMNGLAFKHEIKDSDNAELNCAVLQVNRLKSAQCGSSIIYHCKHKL
human NKG2A/CD94 on cells (CHOK1-hNKG2A/CD94) (human), sequence (Q13241 whole entry, chain 2 of 2, further chain): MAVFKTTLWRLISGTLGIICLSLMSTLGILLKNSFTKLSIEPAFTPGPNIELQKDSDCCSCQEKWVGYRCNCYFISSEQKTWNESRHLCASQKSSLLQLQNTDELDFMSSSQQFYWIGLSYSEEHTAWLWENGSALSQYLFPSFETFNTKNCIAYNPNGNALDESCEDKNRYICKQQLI

B1: NKG2A positive control antibody Z270 (Monalizumab) (antibody, INN chains, looked up, V domains shown)
VH: QVQLVQSGAEVKKPGASVKVSCKASGYTFTSYWMNWVRQAPGQGLEWMGRIDPYDSETHYAQKLQGRVTMTTDTSTSTAYMELRSLRSDDTAVYYCARGGYDFDVGTLYWFFDVWGQGTTVTVSS
VL: DIQMTQSPSSLSASVGDRVTITCRASENIYSYLAWYQQKPGKAPKLLIYNAKTLAEGVPSRFSGSGSGTDFTLTISSLQPEDFATYYCQHHYGTPRTFGGGTKVEIK
Regarding B1, the values for the IC50 (nM), killing of LCL721.221 target cells by NK92 cells in test [1] and in test [3] were 0.57 nM and 1.11 nM, respectively. The Maximum MFI in test [2] was 16100 MFI.
